Test results as given in US20200407723, “APTAMER BASED AFFINITY CAPTURE METHODS FOR THE SELECTIVE ENRICHMENT OF HUMAN IMMUNOGLOBULIN FC DOMAINS” (Waters Technologies Corporation, published 2020).

How the values were obtained:
bovine serum albumin = bovine serum albumin (Bos taurus, UniProt P02769 P02769:25-607); test: pulldown; negative control; negligible non-specific binding in Tris with Mg2+; high non-specific binding with Zn2+, especially without NaCl; settings: tags: Sigma-Aldrich; label: 5'-biotin
Sequence of bovine serum albumin (P02769 25-607, one chain of several): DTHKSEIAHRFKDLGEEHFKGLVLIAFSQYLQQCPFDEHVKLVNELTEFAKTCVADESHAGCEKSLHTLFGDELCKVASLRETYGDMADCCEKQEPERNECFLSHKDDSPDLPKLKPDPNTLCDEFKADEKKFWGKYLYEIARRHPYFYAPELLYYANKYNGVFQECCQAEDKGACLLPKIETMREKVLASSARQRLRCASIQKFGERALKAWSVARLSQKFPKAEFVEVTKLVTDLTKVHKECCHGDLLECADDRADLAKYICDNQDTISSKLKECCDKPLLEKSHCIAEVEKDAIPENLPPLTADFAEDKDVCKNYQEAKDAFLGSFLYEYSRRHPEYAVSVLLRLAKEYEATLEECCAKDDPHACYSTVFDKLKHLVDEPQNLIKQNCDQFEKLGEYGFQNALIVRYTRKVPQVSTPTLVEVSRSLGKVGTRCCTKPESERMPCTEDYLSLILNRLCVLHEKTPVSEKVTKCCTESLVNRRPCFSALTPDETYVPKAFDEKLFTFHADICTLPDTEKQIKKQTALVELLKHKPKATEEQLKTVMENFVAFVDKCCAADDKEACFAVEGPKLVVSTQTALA
Procedure: A positive pressure manifold (commercially available from Waters Technologies Corporation, Milford, Mass.) was utilized to drive flow through the filter plate. The amount of aptamer immobilized was determined by abosorbance at 260 nm using a DS-11 spectrophotometer (commercially available from DeNovix Inc., Wilmington, Del.). This non-covalently immobilized aptamer affinity resin was used to perform the affinity capture of 100 μg human IgG (IgG from human serum, commercially available from Sigma-Aldrich (now MilliporeSigma), St. Louis, Mo.) contained within 200 μL of several different binding buffers (specified below). After 1 hour of mixing, the resin was washed with two repeated 200 μL volumes to remove any unbound protein. Combined hIgG flow-through and washing fractions were saved to determine the amount of hIgG breakthrough. […] The eluate was saved for hIgG recovery measurements using a fluorescence plate reader (Ex. 280 nm, Em. 370 nm; Gemini™ XPS plate reader, commercially available from Molecular Devices, San Jose, Calif.).
The presence of divalent cations in the binding buffer has the potential to facilitate the activation of the aptamer affinity motif, yet it could also instigate non-specific binding. […] After binding and washing steps, captured proteins were eluted with elution buffer and protein recovery in each eluate was measured using a fluorescence plate reader.

[1] = target: NISTmAb humanized IgG1 (Fc domain) (UniProt P01857-1 P01857-1:99-330); test: pulldown; from rat plasma, 12.5 ug aptamer, about 85% of 100 ug recovered, purity 10.6% to 72.4%; bound mAb to plasma protein ratio near 7:3; retained in 5 mM CaCl2 Tris; settings: chain copies: 2; label: 5'-biotin
Procedure: 280 nm, Em. 370 nm) and re-calculated according to the chromatographic purity assessment. […] After purification, about 85% of the spiked NIST mAb was recovered with purity increasing from 10.6% to 72.4%.
The small portion of impurity in the purified NIST mAb eluate was determined to be the non-specific binding of rat plasma endogenous proteins to the aptamer. The competition in binding between NIST mAb and plasma protein was investigated by loading 20 μL of rat plasma containing 50 μg of NIST mAb onto an increasing amount of immobilized aptamer (5 μg, 12.5 μg, 25 μg). The result of this experiment is summarized in FIG. 8D-E. From which, it is possible to observe that the binding ratio of NIST mAb to plasma protein is close to 7:3 (from UV measurement) for the current experimental approach.
To test out this optional protocol step, 20 μL of plasma and 25 μg of NIST mAb were diluted with binding buffer to 200 μL then loaded onto 40 μL of streptavidin resin wherein 5 μg of aptamer was non-covalently immobilized. […] Herein, the second washing and elution fractions were collected and analyzed by LC-UV analysis. […]

B1: anti-human Fc 23-nt aptamer SEQ ID NO 1 (mixed)
RNA: GGAGGUGCUCCGAAAGGAACUCC
modifications: 2'-F U at 6, 9, 21; 2'-F C at 20; ribonucleotides at A3, G4, G5, G7, G16, G17; all other positions deoxyribonucleotides
**Q.** What does the source list for B1?
**A.** binding result (bovine serum albumin): no binding; binding result [1]: binds
